The results in this text go back to paper PMC8219681, “Inhibition of MRN activity by a telomere protein motif” (Nature Communications, 2021).

Numbering of substitutions follows the chain as printed. Numbers in names are those of the source.

In assay [1] the target is T1, Rad50 (S. cerevisiae, FLAG-tagged at the C terminus) (S. cerevisiae, UniProt P12753 1-1312).
T1 construct: Rad50, Saccharomyces cerevisiae
T1 sequence (looked up): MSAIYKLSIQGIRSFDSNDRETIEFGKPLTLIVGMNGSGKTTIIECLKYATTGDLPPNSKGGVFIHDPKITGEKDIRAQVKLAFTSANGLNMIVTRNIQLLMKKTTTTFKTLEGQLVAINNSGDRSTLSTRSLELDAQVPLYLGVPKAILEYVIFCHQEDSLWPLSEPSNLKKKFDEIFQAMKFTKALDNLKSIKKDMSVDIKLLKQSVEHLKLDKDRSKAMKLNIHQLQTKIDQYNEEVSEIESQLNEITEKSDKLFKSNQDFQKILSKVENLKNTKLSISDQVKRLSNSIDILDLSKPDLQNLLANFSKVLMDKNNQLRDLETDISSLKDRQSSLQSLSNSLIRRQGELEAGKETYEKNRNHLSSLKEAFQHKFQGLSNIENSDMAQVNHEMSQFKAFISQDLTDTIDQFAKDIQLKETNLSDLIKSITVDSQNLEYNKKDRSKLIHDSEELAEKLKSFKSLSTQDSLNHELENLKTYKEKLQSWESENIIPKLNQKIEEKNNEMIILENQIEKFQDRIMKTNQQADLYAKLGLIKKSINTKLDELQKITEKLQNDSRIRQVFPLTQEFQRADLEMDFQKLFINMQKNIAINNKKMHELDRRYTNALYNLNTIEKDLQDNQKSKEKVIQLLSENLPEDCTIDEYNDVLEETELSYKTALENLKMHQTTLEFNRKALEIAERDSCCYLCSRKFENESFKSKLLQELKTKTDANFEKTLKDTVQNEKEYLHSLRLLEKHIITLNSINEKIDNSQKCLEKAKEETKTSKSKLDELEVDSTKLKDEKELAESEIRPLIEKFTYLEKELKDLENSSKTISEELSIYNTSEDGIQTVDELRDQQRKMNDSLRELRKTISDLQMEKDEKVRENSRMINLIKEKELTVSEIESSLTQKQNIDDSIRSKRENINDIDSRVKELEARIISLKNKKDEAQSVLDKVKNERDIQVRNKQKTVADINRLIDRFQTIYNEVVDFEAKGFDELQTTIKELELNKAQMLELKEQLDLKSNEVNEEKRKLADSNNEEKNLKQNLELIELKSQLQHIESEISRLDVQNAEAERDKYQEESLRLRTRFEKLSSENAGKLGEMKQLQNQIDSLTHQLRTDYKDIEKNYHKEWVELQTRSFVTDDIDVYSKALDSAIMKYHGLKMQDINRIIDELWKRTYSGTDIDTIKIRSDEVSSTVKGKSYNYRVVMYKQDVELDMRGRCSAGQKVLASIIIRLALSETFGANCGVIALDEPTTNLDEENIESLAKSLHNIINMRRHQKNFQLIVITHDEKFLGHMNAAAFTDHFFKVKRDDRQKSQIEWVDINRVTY
As to the kind of experiment: pull-down; MBP-Rif2 or MBP-Rif2-min (~5 ug, from Sf9 lysate) immobilised on amylose resin and washed; 1 ug Mre11, 500 ng Rad50 or 1 ug Xrs2 added for 1 h in 50 mM Tris-HCl pH 7.5, 200 mM NaCl, 0.2% NP40, 2 mM EDTA; eluted with 20 mM maltose; Western blot. Conditions: both partners purified. In general terms: A western blot detects proteins with antibodies after separation by electrophoresis.

Assay [2] addresses T2, Mre11 (S. cerevisiae, his-tagged at the C terminus) (S. cerevisiae, UniProt P32829 1-692).
T2 construct: Mre11, Saccharomyces cerevisiae; also called Mre11-his; not shown: His tag, C-terminal, kept
T2 sequence (looked up): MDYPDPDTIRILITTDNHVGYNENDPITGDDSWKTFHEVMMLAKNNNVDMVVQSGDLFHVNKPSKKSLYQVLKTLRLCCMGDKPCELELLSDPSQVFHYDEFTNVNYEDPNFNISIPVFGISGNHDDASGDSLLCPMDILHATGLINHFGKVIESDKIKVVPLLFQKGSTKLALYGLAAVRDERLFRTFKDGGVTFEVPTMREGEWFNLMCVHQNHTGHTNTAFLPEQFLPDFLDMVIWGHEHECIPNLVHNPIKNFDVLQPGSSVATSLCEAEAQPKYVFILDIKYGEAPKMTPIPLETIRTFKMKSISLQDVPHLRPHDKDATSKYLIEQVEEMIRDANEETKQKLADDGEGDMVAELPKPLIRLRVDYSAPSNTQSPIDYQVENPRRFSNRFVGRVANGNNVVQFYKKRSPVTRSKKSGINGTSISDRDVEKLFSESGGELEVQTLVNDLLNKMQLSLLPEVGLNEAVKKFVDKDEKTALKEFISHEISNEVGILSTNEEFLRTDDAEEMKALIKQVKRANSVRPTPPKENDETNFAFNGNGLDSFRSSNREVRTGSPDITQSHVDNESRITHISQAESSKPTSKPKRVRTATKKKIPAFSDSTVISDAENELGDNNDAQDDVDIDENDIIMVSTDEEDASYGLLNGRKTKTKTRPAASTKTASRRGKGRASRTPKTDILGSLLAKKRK
The assay is described as above. Conditions: both partners purified.

B1: MBP-Rif2 (S. cerevisiae Rif2, wild type) (natural protein, UniProt Q06208 1-395, looked up)
chain: MEHVDSDFAPIRRSKKVVDSDKIVKAISDDLEQKNFTVLRKLNLVPIKKSVSSPKVCKPSPVKERVDHVFYQKFKSMALQELGTNYLSISYVPSLSKFLSKNLRSMKNCIVFFDKVEHIHQYAGIDRAVSETLSLVDINVVIIEMNDYLMKEGIQSSKSKECIESMGQASYSGQLDFEASEKPSNHTSDLMMMVMRKINNDESIDHIVYFKFEQLDKLSTSTIIEPSKLTEFINVLSVLEKSNNIAFKVLIYSNNVSISSLLSTSLKKKLNTKYTVFEMPILTCAQEQEYLKKMIKFTFDSGSKLLQSYNSLVTCQLNNKESNLAIFFEFLKVFPHPFTYLFNAYTEIIVQSRTFDELLDKIRNRLTIKNYPHSAYNFKKNQRLPLKLTRKVHDR
notes: Rif2, Saccharomyces cerevisiae, full length, expressed from the vector pFB-MBP-Rif2-his; MBP was cleaved with PreScission protease only after elution from the resin; N-terminal place of MBP is read from the construct's name MBP-Rif2-his; also called ScRif2; not shown: MBP, N-terminal, kept
Turning to B1, the binding result in assay [1] and in assay [2] was “binds” in each case.

B2: MBP-Rif2-min (S. cerevisiae Rif2 F8E P10N) (natural protein, UniProt Q06208 1-395, looked up)
chain: B1 chain with F8E, P10N
notes: Rif2, Saccharomyces cerevisiae, full length, F8E P10N, expressed from the vector pFB-MBP-Rif2-min-his; MBP was cleaved with PreScission protease only after elution from the resin; N-terminal place of MBP is read from the construct's name; also called mutant Rif2; not shown: MBP, N-terminal, kept
Turning to B2, the binding result in assay [1] and in assay [2] was “binds” in each case.
